Assay results: the supplement of paper PMC11780869

Tested on: Bacillus subtilis
Test: cleaved RNA product abundance (RNA/gDNA barcode ratio) relative to median wild-type variant (ratio to wild type); higher = more accumulation of the downstream cleavage product
Settings: cleavage site: cggR-gapA (positions -7 to +36 mutated)
Summary of the method: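 Sequencing of barcodes from gel-selected, reverse-transcribed cleaved RNA and from genomic DNA, with UMI collapsing, yielded a per-construct RNA:gDNA ratio. Scaled to the median construct with the unmutated site, this ratio is the cleaved product abundance. The barcoded reporters (truncated aprE or tetM mRNAs with mutagenized RNase Y cleavage-site windows) were integrated into the B. subtilis chromosome, and cultures grew in LB at 37°C from OD600 0.0003 to 0.3.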

[1] = experiment (reporter, strain, medium): exp 4a: truncated aprE reporter, strain BJT201 with 2% xylose (RNase J1 expressed)
[2] = experiment (reporter, strain, medium): exp 2b: truncated aprE reporter, strain BJT200

| Sequence | cleaved RNA product abundance [1] | cleaved RNA product abundance [2] | cleaved RNA product abundance (experiment (reporter, strain, medium): exp 6: tetM reporter, strain 168) |
| --- | --- | --- | --- |
| ACAGACGAAGGAGCCGCAAATAAGTTATTAAGGGATGAATAATCCCCCAATATAAATATCTCTCACTTATTTAAA | 0.23 |  |  |
| ACAGACGAAGGAGCCGCAAATAAGTTATTAAGGGATGAATAATCCCTAAATATAAATATCTCTCACTTATTTAAA | 0.865 | 0.668 |  |
| ACAGACGAAGGAGCCGCAAATAAGTTATTAAGGGATGAATAATCCCTCAAAATAAATATCTCTCACTTATTTAAA | 0.322 | 0.34 |  |
| ACAGACGAAGGAGCCGCAAATAAGTTATTAAGGGATGAATAATCCCTCAACATAAATATCTCTCACTTATTTAAA | 0.401 |  |  |
| ACAGACGAAGGAGCCGCAAATAAGTTATTAAGGGATGAATAATCCCTCAAGATAAATATCTCTCACTTATTTAAA | 0.373 |  |  |
| ACAGACGAAGGAGCCGCAAATAAGTTATTAAGGGATGAATAATCCCTCAATAAAAATATCTCTCACTTATTTAAA | 0.143 |  |  |
| ACAGACGAAGGAGCCGCAAATAAGTTATTAAGGGATGAATAATCCCTCAATACAAATATCTCTCACTTATTTAAA | 0.106 |  |  |
| ACAGACGAAGGAGCCGCAAATAAGTTATTAAGGGATGAATAATCCCTCAATATAAACATCTCTCACTTATTTAAA | 0.822 | 0.822 |  |
| ACAGACGAAGGAGCCGCAAATAAGTTATTAAGGGATGAATAATCCCTCAATATAAAGATCTCTCACTTATTTAAA | 0.565 | 0.535 |  |
| ACAGACGAAGGAGCCGCAAATAAGTTATTAAGGGATGAATAATCCCTCAATATAAATAACTCTCACTTATTTAAA | 0.44 |  |  |
| ACAGACGAAGGAGCCGCAAATAAGTTATTAAGGGATGAATAATCCCTCAATATAAATACCTCTCACTTATTTAAA | 0.538 |  |  |
| ACAGACGAAGGAGCCGCAAATAAGTTATTAAGGGATGAATAATCCCTCAATATAAATATATCTCACTTATTTAAA | 0.814 |  |  |
| ACAGACGAAGGAGCCGCAAATAAGTTATTAAGGGATGAATAATCCCTCAATATAAATATCTCTCACTTATTTAAA | 0.932 | 0.972 | 1.07 |
| ACAGACGAAGGAGCCGCAAATAAGTTATTAAGGGATGAATAATCCCTCAATATAAATGTCTCTCACTTATTTAAA | 0.45 |  |  |
| ACAGACGAAGGAGCCGCAAATAAGTTATTAAGGGATGAATAATCCCTCAATATAAATTTCTCTCACTTATTTAAA | 0.862 |  |  |
| ACAGACGAAGGAGCCGCAAATAAGTTATTAAGGGATGAATAATCCCTCAATATAATTATCTCTCACTTATTTAAA | 0.477 | 0.515 |  |
| ACAGACGAAGGAGCCGCAAATAAGTTATTAAGGGATGAATAATCCCTCAATATACATATCTCTCACTTATTTAAA | 0.64 | 0.727 |  |
| ACAGACGAAGGAGCCGCAAATAAGTTATTAAGGGATGAATAATCCCTCAATATAGATATCTCTCACTTATTTAAA | 0.649 | 0.715 |  |
| ACAGACGAAGGAGCCGCAAATAAGTTATTAAGGGATGAATAATCCCTCAATATATATATCTCTCACTTATTTAAA | 0.9 |  |  |
| ACAGACGAAGGAGCCGCAAATAAGTTATTAAGGGATGAATAATCCCTCAATATTAATATCTCTCACTTATTTAAA | 0.156 |  |  |
| ACAGACGAAGGAGCCGCAAATAAGTTATTAAGGGATGAATAATCCCTCAATGTAAATATCTCTCACTTATTTAAA | 0.178 |  |  |
| ACAGACGAAGGAGCCGCAAATAAGTTATTAAGGGATGAATAATCCCTCAATTTAAATATCTCTCACTTATTTAAA | 0.136 |  |  |
| ACAGACGAAGGAGCCGCAAATAAGTTATTAAGGGATGAATAATCCCTCACTATAAATATCTCTCACTTATTTAAA | 0.218 | 0.193 |  |

| Sequence | cleaved RNA product abundance [1] | cleaved RNA product abundance [2] | cleaved RNA product abundance (experiment (reporter, strain, medium): exp 6: tetM reporter, strain 168) |
| --- | --- | --- | --- |
| ACAGACGAAGGAGCCGCAAATAAGTTATTAAGGGATGAATAATCCCTCAGTATAAATATCTCTCACTTATTTAAA | 0.303 |  |  |
| ACAGACGAAGGAGCCGCAAATAAGTTATTAAGGGATGAATAATCCCTCATTATAAATATCTCTCACTTATTTAAA | 0.356 |  |  |
| ACAGACGAAGGAGCCGCAAATAAGTTATTAAGGGATGAATAATCCCTCCATATAAATATCTCTCACTTATTTAAA | 0.333 | 0.274 |  |
| ACAGACGAAGGAGCCGCAAATAAGTTATTAAGGGATGAATAATCCCTCGATATAAATATCTCTCACTTATTTAAA |  | 0.459 |  |
| ACAGACGAAGGAGCCGCAAATAAGTTATTAAGGGATGAATAATCCCTCTATATAAATATCTCTCACTTATTTAAA | 0.439 | 0.34 |  |
| ACAGACGAAGGAGCCGCAAATAAGTTATTAAGGGATGAATAATCCCTTAATATAAATATCTCTCACTTATTTAAA | 0.452 |  |  |
| ACAGACGAAGGAGCCGCAAATAAGTTATTAAGGGATGAATAATCCGTCAATATAAATATCTCTCACTTATTTAAA | 0.299 |  |  |
| ACAGACGAAGGAGCCGCAAATAAGTTATTAAGGGATGAATAATCCTTCAATATAAATATCTCTCACTTATTTAAA |  | 0.395 |  |
| ACAGACGAAGGAGCCGCAAATAAGTTATTAAGGGATGAATAATCGCTCAATATAAATATCTCTCACTTATTTAAA | 0.121 |  |  |
| ACAGACGAAGGAGCCGCAAATAAGTTATTAAGGGATGAATAATCTCTCAATATAAATATCTCTCACTTATTTAAA | 0.758 | 0.613 |  |
| ACAGACGAAGGAGCCGCAAATAAGTTATTAAGGGATGAATAATGCCTCAATATAAATATCTCTCACTTATTTAAA | 0.145 |  |  |
| ACAGACGAAGGAGCCGCAAATAAGTTATTAAGGGATGAATAATTCCTCAATATAAATATCTCTCACTTATTTAAA | 0.547 |  |  |
| ACAGACGAAGGAGCCGCAAATAAGTTATTAAGGGATGAATACTCCCTCAATATAAATATCTCTCACTTATTTAAA | 0.538 | 0.682 |  |
| ACAGACGAAGGAGCCGCAAATAAGTTATTAAGGGATGAATAGTCCCTCAATATAAATATCTCTCACTTATTTAAA | 0.887 | 0.852 |  |
| ACAGACGAAGGAGCCGCAAATAAGTTATTAAGGGATGAATATTCCCTCAATATAAATATCTCTCACTTATTTAAA | 1.07 | 0.769 |  |
| ACAGACGAAGGAGCCGCAAATAAGTTATTAAGGGATGAATCATCCCTCAATATAAATATCTCTCACTTATTTAAA | 0.899 | 0.769 |  |
| ACAGACGAAGGAGCCGCAAATAAGTTATTAAGGGATGAATTATCCCTCAATATAAATATCTCTCACTTATTTAAA | 0.737 | 0.711 |  |
| ACAGACGAAGGAGCCGCAAATAAGTTATTAAGGGATGATTAATCCCTCAATATAAATATCTCTCACTTATTTAAA | 0.697 | 0.783 |  |
| ACAGACGAAGGAGCCGCAAATAAGTTATTAAGGGATGCATAATCCCTCAATATAAATATCTCTCACTTATTTAAA | 1.1 |  |  |
| ACAGACGAAGGAGCCGCAAATAAGTTATTAAGGGATGTATAATCCCTCAATATAAATATCTCTCACTTATTTAAA | 0.901 |  |  |
| ACAGACGAAGGAGCCGCAAATAAGTTATTAAGGGATTAATAATCCCTCAATATAAATATCTCTCACTTATTTAAA | 0.881 | 0.863 |  |
| ACAGACGAAGGAGCCGCAAATAAGTTATTAAGGGCTGAATAATCCCTCAATATAAATATCTCTCACTTATTTAAA | 0.627 |  |  |
